According to patent US20110171222A1 (Hoffmann-La Roche, published 2011):
Numbering of substitutions follows the chain as printed.

B1: U1-53 (antibody, from another filing, V domains shown)
VH: EVQLVESGGGLVQPGGSLRLSCAASGFTFSIYSMNWVRQAPGKGLEWVSYISSSSSTIYYADSVKGRFTISRDNAKNSLYLQMNSLRDEDTAVYYCARDRGDFDAFDIWGQGTMVTVSS
VL: DIQMTQSPSSLSASVGDRVTITCQASQDITNYLNWYQQKPGKAPKLLIYDASNLETGVPSRFSGSGSGTDFTFTISSLQPEDIATYNCQQCENFPITFGQGTRLEIK
B2: Mab 205.10.1 (antibody, V domains shown)
VH: QVQLVQSGAEVKKPGASVKVSCKASGYTFRSSYISWVRQAPGQGLEWMGWIYAGTGSPSYNQKLQGRVTMTTDTSTSTAYMELRSLRSDDTAVYYCARHRDYYSNSLTYWGQGTLVTVSS
VL: DIVMTQSPDSLAVSLGERATINCKSSQSLLNSGNQKNYLTWYQQKPGQPPKLLIYWASTRESGVPDRFSGSGSGTDFTLTISSLQAEDVAVYYCQSDYSYPYTFGQGTKLEIK
notes: Humanized antibody; Only the variable domains are tied to it; The assays detected it with anti-human IgG or captured it with anti-Fc gamma
B3: Mab 205.10.3 (antibody, human IgG1, V domains shown)
VH: B2 VH
VL: B2 VL with A90S, V91I
notes: Humanized antibody; Only the variable domains are tied to it

Assays:
[1] = target: HER3 on MCF7, FaDu and Mel-Juso tumor cells (human) (UniProt P21860); assay: cell-based or functional assay
human HER3 ECD = target: T1, human HER3 ECD (human, UniProt P21860 20-643); assay: SPR (Biacore T100), antibody captured by anti-Fc gamma, HER3 ECD as analyte, 25 °C, 1:1 Langmuir model
T1 construct: also called hHER3-ECD; hu-HER3-ECD
Description: After conjugation, anti-HER3 antibodies were injected at 25° C. at a flow rate of 5 μL/min, followed by a dilution series (0 nM to 1000 nM) of human HER3 ECD at 30 μL/min. As running buffer for the binding experiment PBS/0.1% BSA was used. The chip was then regenerated with a 60 s pulse of 10 mM glycine-HCl, pH 2.0 solution.
Calculation of thermodynamic parameters (KD, binding constant to HER3) were calculated using a Langmuir 1:1 binding model.

[2] = target: T2, Soluble human HER3 extracellular domain fused to Streptavidin Binding Protein (SBP) (human, UniProt P21860 20-643); assay: ratio of the concentration by HER3-ECD ELISA to the concentration by IgG ELISA
T2 construct: It was used as HEK293 supernatant captured on streptavidin plates; also called SBP-HER3

[3] = target: T2, Soluble human HER3 extracellular domain …; assay: ELISA, SBP-HER3 ECD captured on streptavidin plate, anti-human IgG-HRP detection
Description: Soluble human HER3 extracellular domain fused to Streptavidin Binding Protein (SBP) was captured on a streptavidin plate. […] For the standard coating, SBP-HER3 containing HEK293 supernatant was diluted (between 1:15 and 1:40) and incubated overnight at 2-80 C (25 μl per well). Intensive washing of the microtiter plate was necessary to remove remaining unbound SBP-HER3.
Antibodies were tested either undiluted or using a 12-step-dilution. 12.5 μl per well of each sample was incubated for 90 min at room temperature.

| Binder | pHER3 % inhibition [0.1 µg/ml], MCF7 cells [1] [%] | pHER3 % inhibition [1.0 µg/ml], MCF7 cells [1] [%] | Kd (human HER3 ECD) [nM] | activity (ratio binding to hu_HER3-ECD/IgG) [2] | hu_HER3-ECD-ELISA c [3] [µg/mL] |
| --- | --- | --- | --- | --- | --- |
| B1 | 54 | 51 |  |  |  |
| B2 |  |  | 2 | 0.74 | 583 |
| B3 |  |  | 2 | 0.83 | 505 |
